Measurements: article PMC4810302 (The Journal of Cell Biology, 2016)
Where no end group is shown, it is not given here.

Molecular target: His-G3BP1 (human, UniProt Q13283 1-466)
Experiment: pull-down

Sequence of His-G3BP1 (Q13283 whole entry): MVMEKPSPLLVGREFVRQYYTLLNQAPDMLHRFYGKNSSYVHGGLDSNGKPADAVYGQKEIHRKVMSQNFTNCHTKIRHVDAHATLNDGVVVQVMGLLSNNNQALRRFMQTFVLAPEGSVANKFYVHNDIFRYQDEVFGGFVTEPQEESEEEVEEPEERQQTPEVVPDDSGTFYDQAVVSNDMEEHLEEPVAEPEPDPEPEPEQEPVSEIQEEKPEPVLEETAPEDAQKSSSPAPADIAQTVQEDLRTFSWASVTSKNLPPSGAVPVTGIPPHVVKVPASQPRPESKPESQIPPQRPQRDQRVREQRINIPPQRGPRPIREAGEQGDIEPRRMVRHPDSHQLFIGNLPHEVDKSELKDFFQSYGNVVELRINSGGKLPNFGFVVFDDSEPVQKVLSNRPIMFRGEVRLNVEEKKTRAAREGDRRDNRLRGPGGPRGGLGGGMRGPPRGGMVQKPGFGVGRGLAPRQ

binding result: binds
Binder: YIFGDFSPDEFNQFFVTP-biotin [USP10_(8–25)WT peptide]
